According to patent publication US20180119150A1:

Target: FLT3 (human) (UniProt P36888)
Test: cell-based or functional assay

Chain of UniProt P36888 (P36888 27-993): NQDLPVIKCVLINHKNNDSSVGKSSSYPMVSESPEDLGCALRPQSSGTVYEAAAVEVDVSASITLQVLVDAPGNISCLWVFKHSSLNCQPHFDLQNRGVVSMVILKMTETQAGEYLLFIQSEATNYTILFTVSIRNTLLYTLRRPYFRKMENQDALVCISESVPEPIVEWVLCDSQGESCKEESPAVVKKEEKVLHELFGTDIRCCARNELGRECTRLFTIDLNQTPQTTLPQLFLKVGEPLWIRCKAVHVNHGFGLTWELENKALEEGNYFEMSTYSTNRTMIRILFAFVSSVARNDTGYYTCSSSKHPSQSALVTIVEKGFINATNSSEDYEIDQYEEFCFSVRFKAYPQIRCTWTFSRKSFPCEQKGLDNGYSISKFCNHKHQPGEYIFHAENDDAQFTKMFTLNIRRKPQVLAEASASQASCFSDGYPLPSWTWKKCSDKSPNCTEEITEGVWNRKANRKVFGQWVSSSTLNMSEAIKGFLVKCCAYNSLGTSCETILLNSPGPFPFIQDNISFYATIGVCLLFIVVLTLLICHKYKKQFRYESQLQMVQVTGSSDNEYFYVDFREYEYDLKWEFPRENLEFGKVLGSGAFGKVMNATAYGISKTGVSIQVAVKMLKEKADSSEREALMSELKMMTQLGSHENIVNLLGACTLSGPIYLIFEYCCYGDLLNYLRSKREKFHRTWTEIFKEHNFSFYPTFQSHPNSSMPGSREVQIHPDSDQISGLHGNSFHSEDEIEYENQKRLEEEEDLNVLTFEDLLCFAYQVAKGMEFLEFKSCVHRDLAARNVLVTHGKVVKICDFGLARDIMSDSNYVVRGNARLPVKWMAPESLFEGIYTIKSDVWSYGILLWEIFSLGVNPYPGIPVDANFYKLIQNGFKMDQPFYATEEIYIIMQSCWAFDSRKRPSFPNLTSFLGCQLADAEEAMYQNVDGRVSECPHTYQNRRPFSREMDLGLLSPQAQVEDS

one-hour uptake ratio [%] | Substance
5.9 | G7-H2B control nanoparticles
23.6 | FLT3L-conjugated Generation 7 (G7) PAMAM (G7-FLT3L) dendrimers (from UniProt P49771 27-181) (ligand)
